According to US20170114130A1 (University of California, published 2017):

Assays:
[1] = target: human IL-2 (recombinant IL-2, Humanzyme) (human) (UniProt P60568); test: SPR, human IL-2; the value repeats Table 3 (assumed off-rate limit)
[2] = target: human IL-2 (recombinant IL-2, Humanzyme) (human) (UniProt P60568); test: SPR (Biacore T200), antibody captured on anti-mouse IgG, IL-2 injected, 25 C, 1:1 Langmuir fit
[3] = target: recombinant cynomolgus monkey (Macaca fascicularis) IL-2 (cynomolgus monkey (Macaca fascicularis)) (UniProt Q29615); test: SPR as in Example 1, cynomolgus IL-2 1-100 nM, 1:1 Langmuir or steady-state fit
Sequence of recombinant cynomolgus monkey (Macaca fascicularis) IL-2 (cynomolgus monkey (Macaca fascicularis)) (Q29615 21-154 limits assumed): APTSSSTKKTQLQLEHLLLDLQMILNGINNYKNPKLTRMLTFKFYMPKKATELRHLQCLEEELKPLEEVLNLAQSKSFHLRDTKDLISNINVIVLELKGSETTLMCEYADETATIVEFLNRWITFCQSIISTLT

[4] = target: human IL-2 (recombinant IL-2, Humanzyme) (human) (UniProt P60568); test: SPR (Biacore T200), antibody captured on anti-mouse IgG, IL-2 injected; off-rate outside the specifications of the instrument, assumed limit
[5] = target: human IL-2 (recombinant IL-2, Humanzyme) (human) (UniProt P60568); test: SPR (Biacore T200), antibody captured on anti-mouse IgG, IL-2 injected; calculated with the assumed off-rate limit
IL-2/F5.1.11 Fab complex = target: T1, IL-2/F5.1.11 Fab complex (human, UniProt P60568 21-153); test: SPR (Biacore T200), 1-500 nM IL-2 pre-complexed with excess Fab over biotinylated IL-2Rα, equilibrium analysis
T1 construct: also called F5.1.11/IL-2
T1 sequence (VH, as listed by the source limits assumed, chain 1 of 3): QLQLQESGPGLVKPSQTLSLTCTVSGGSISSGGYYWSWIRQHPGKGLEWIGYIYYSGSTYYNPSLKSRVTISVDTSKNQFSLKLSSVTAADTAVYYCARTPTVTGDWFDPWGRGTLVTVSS
T1 sequence (VL, as listed by the source limits assumed, chain 2 of 3): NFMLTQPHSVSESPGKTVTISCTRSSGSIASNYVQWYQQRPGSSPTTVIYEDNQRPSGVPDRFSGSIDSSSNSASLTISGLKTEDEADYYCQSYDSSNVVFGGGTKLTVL
T1 sequence (P60568 21-153 limits assumed, chain 3 of 3): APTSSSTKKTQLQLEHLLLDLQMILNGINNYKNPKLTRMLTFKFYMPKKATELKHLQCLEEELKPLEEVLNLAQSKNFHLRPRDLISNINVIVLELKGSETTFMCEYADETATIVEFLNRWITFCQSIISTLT
Protocol: Experiments were performed at 25° C. using a 10 μL/minute flow rate in 10 mM HEPES (pH7.4), 150 mM NaCl and 0.005% v/v Surfactant P20 buffer. […] Data was background subtracted using the adjacent control flow cell and buffer only injections. The affinity of the interaction was calculated from concentration-response relationship at equilibrium.

d1C7/IL-2 complex = target: T2, d1C7/IL-2 complex (human, UniProt P60568 21-153); test: SPR (Biacore T200), complex injected over biotinylated receptor on streptavidin chip
T2 construct: Non-covalent complex: IL-2 (333 nM) pre-incubated with d1C7 IgG (1000 nM) for at least 20 minutes; also called clone d1C7/IL-2 complex
T2 sequence (VH, as listed by the source limits assumed, chain 1 of 3): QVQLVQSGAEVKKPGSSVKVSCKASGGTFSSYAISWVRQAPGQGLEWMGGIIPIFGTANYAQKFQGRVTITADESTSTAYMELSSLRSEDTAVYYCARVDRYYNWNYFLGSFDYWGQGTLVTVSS
T2 sequence (VL, as listed by the source limits assumed, chain 2 of 3): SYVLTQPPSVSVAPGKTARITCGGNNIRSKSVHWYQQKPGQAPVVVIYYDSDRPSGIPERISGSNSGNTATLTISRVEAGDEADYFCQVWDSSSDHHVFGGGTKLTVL
T2 sequence (P60568 21-153 limits assumed, chain 3 of 3): as the sequence (P60568 21-153 limits assumed, chain 3 of 3) above
Protocol: Experiments were performed at 25° C. using a 10 μL/minute flow rate in 10 mM HEPES (pH 7.4), 150 mM NaCl and 0.005% v/v Surfactant P20 buffer. […] Data was background subtracted using the adjacent control flow cell and buffer only injections.

Sequence of human IL-2 (recombinant IL-2, Humanzyme) (human) (P60568 21-153 limits assumed): as the sequence (P60568 21-153 limits assumed, chain 3 of 3) above

Molecule: mouse anti-human IL-2 clone 5344 (clone 5344.111, BD Biosciences) (antibody)
- Kd [1]: < 0.05 nM
- kon [2]: 1.02e+06 M⁻¹ s⁻¹
- Kd [3]: > 50 nM
- koff [4]: < 5e-05 s⁻¹
- Kd [5]: < 0.05 nM

B1: recombinant IL-2Rα, biotin labeled (receptor, UniProt P01589 22-240, looked up)
chain: ELCDDDPPEIPHATFKAMAYKEGTMLNCECKRGFRRIKSGSLYMLCTGNSSHSSWDNQCQCTSSATRNTTKQVTPQPEEQKERKTTEMQSPMQPVDQASLPGHCREPPPWENEATERIYHFVVGQMVYYQCVQGYRALHRGPAESVCKMTHGKTRWTQPQLICTGEMETSQFPGEEKPQASPEGRPESETSCLVTTTDFQIQTEMAATMETSIFTTEYQ
modifications: biotin labeled (site not stated)
notes: also called IL-2α; IL-2a
- Kd (IL-2/F5.1.11 Fab complex): 70.1 nM

B2: recombinant IL-2Rβ, biotin labeled (receptor, UniProt P14784 27-240, looked up)
chain: AVNGTSQFTCFYNSRANISCVWSQDGALQDTSCQVHAWPDRRRWNQTCELLPVSQASWACNLILGAPDSQKLTTVDIVTLRVLCREGVRWRVMAIQDFKPFENLRLMAPISLQVVHVETHRCNISWEISQASHYFERHLEFEARTLSPGHTWEEAPLLTLKQKQEWICLETLTPDTQYEFQVRVKPLQGEFTTWSPWSQPLAFRTKPAALGKDT
modifications: biotin labeled (site not stated)
notes: also called CD122
- binding result (d1C7/IL-2 complex): no binding (tested: IL-2 333 nM with IgG 1000 nM)
